# From patent US20220227882A1 (TRUSTEES OF TUFTS COLLEGE, published 2022)
# Key:
# [1] = target: T1, Full-length human ADAM8 on cells (HEK293-ADAM8 stable or transfected cells); also endogenous ADAM8 of breast … (human, UniProt P78325 17-824); assay: FACS, HEK293-ADAM8 cells, antibody 10 µg/ml
# T1 construct: On cells the proform, the active form and the remnant form can all be present; also called native ADAM8; HEK293-A8
# T1 sequence: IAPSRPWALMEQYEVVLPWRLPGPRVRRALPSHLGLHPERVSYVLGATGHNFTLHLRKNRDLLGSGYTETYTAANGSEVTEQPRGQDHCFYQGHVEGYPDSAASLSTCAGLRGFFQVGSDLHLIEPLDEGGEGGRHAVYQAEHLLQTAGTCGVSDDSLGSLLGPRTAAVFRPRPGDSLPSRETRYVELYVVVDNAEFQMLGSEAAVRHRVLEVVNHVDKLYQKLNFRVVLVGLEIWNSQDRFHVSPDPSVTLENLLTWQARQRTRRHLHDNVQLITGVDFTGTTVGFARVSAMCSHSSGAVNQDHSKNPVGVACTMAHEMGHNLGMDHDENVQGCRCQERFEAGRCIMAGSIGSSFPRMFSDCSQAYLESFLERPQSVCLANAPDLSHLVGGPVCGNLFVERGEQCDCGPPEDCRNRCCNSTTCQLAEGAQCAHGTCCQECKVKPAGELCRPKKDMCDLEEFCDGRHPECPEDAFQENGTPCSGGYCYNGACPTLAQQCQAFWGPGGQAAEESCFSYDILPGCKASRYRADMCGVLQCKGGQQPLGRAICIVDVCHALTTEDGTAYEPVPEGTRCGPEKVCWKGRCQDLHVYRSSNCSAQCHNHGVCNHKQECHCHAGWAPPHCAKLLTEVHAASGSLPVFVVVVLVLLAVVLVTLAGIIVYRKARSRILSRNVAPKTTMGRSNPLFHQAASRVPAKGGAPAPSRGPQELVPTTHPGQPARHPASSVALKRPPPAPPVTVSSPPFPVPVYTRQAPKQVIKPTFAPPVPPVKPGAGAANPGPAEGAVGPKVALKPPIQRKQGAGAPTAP
# [2] = target: T2, Recombinant human ADAM8 (rHuADAM8) ectodomain protein (aa 17-497), ACRO Biosystems AD8-H5223 (human, UniProt P78325 17-497); assay: Biacore SPR, rHuADAM8 as analyte
# T2 construct: Bought protein made in HEK293 cells; The protein clips off its own prodomain (aa 17-191); also called rhADAM8; immunogen
# T2 sequence: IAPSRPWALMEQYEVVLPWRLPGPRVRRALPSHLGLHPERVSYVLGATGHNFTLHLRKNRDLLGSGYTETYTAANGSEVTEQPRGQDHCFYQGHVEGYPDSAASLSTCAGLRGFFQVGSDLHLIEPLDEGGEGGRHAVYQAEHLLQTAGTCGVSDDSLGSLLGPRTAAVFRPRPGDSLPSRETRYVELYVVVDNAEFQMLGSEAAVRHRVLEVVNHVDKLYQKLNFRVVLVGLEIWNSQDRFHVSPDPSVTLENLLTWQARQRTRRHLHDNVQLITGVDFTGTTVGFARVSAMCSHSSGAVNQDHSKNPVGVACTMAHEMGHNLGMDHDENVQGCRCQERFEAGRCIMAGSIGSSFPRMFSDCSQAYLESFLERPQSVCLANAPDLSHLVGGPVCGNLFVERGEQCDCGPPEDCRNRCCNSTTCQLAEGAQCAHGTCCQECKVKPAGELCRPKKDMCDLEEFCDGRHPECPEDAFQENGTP
# Procedure: For Biacore assays, each ADP was used as the ligand in a multiple cycle kinetics method performed on a Biacore™ T200 surface plasmon resonance system (GE Healthcare Life Sciences) machine. ADP proteins were captured using anti-mouse Fc IgG attached to a dextran matrix, and rHuADAM8 (Acro Biosystems, AD8-H5223) added as the analyte at concentrations ranging from 3.75 nM to 200 nM. HBS-EP+ (10 mM HEPES, 0.15 M NaCl, 3 mM EDTA, 0.05% Surfactant P20) running buffer was passed at a flow rate of 30 μl/min and antigen injected at 30 μl/min. The association and dissociation phases were carried out for 180 s and 600 s, respectively. Surface regeneration was performed for 30 s at 30 μl/min of Glycine pH 1.5. Values for association rate constant (kₐ), dissociation rate constant (kd) and equilibrium dissociation constant (KD) were calculated through the Biacore™ T200 Software.
# [3] = target: T3, Recombinant human ADAM12 (Acro Biosystems, AD2-H5228) (human, UniProt O43184 208-708); assay: ELISA, coated recombinant ADAM12
# T3 sequence (looked up): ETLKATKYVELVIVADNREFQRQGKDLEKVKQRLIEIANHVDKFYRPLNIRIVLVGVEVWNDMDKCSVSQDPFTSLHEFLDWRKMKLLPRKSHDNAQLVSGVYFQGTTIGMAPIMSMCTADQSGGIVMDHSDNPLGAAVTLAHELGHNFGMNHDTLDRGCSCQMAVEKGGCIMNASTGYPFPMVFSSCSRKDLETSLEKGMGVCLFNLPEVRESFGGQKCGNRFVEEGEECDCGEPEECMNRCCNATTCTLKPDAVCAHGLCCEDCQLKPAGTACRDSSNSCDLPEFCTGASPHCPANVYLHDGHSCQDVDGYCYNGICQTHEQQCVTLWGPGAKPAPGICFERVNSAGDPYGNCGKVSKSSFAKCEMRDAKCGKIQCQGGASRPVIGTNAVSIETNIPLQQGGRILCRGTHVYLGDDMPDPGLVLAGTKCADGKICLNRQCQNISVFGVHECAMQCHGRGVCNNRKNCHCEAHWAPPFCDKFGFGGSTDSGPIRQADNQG
Binder,MFI [1] [MFI],Kd [2] [nM],OD 450nm [3] [OD450nm],binding result [3]
"ADP2 (antibody, V domains shown, also called mADP2; mouse ADP2) VH: EVKLVESGGGLVQPGGSLSLSCAASGFSFPDYYMSWVRQPPGKALEWLGFIRDSANGYTTEYIASVKGRFTFSRDNSQSILYLQMNALRAEDSATYYCARYSRYYGMDYWGQGTSVTVSS VL: SIVMTQTPKILLVSAGDRVTITCKASQTVNYDVAWYQQKPGQSPKPVIYFASNRYTGVPDRFTGSGFGTDFTFTISTVQAEDLAVYFCQQDYSAPWTFGGGTKLEIK",158,3.34,0.14,no binding (tested: 1 µg/ml)
"ADP13 (antibody, IgG1, V domains shown, also called mADP13; mouse ADP13) VH: EVQLQQSGPEMVKPGTSVKISCKASGYTFTDYYINWVKQSHGKSLEWIGDISPNIGGATYNPKFKGKAILTVDKSARTAYMELRSLTSEDSAVYCCTRGGSSYPYFYAMDYWGQGTSVTVSS VL: DIVMSQSPSSLAVSVGEKVTMSCKSSQSLLYSSNQKKYLAWYQQKPGQSPKLLIYWASTRESGVPDRFTGSGSGTDFTLTISSVKAEDLAVYYCQQFYSYPYTFGGGTKLEINR",62.2,1.3,0.12,no binding (tested: 1 µg/ml)
"ADP3 (antibody, IgG1, V domains shown) VH: EVKLEESGGGLVQPGGSMKLSCAASGFTFSDAWMDWVRQSPEKGLEWVAEIRGKVNNLATYYVESVKGRFTISRDDSKSSVYLQMNSLRAEDTGIYYCLGRYDATYAMDYWGQGTSVTVSS VL: DVVMTQTPLSLPVSLGDQASISCRSSQSLVHSDGNTYLHWYLQKPGQSPKLLIYKLSNRFSGVPDRFSGSGSGTDFTLKISRVEAEDLGVYFCSQSTHVPWTFGGGTKLEIK",86.9,18.3,0.16,
